2 molecules from article PMC9381132 (Molecular Cancer Therapeutics, 2022) can be followed below.

A word on the stoichiometry N: it is a count of units in the complex or per binding partner.

For experiment [1], the target named is T1, untagged human LY6G6D extracellular domain (construct used for structural studies) (human).
T1 chain: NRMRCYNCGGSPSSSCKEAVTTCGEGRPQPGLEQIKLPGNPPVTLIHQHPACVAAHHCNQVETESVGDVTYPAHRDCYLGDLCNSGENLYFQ
Briefly: SEC-MALS. On the technique in general: SEC sorts molecules by how far they enter the pores of the column.

Experiment [2] concerns the target T2, human LY6G6D (recombinant protein of the BIAcore kinetics and of the epitope binning) (Homo sapiens, UniProt O95868). As to the kind of experiment: SPR. Background: In SPR one partner is held on a chip, and binding of the other changes the refractive index at the surface.
Experiment [3] has as its target T2, human LY6G6D (recombinant protein of …). As to the kind of experiment: SPR. The source holds these as a separate data set.

Where two headings read alike, the source gives them in different places.

B1: 1G4 Fab (Fab, V domains shown)
VH: EVQLQQSGPELVKPGASVKMSCKASGYTFTTYVMHWVQQKPGQGLEWIGYINPYNDGTKYNEKFKGKATLTSDTSSSTAYMELSSLTSDDSAVYYCGRRNFDYWGQGTLVTVSS
VL: DILMTQSPSSLTVSAGEKVTMSCKSSQSLLLSGNQENYLAWHQQKPGRSPKTLITWASTRISGVSDRFIGSGSGTDFTLTINSVQAEDLAVYYCQQSYSAPYTFGQGTKVEIK
As for B1, the “stoichiometry N” value in experiment [1] stood at 1. Moreover, in experiment [2], the binding result is “binds”.

B2: anti-LY6G6D murine mAb clone 1G4 (antibody, V domains shown)
VH: B1 VH
VL: B1 VL
For the molecule B2, in experiment [3], the binding result is listed as “binds”.
